Data published in article PMC5339286, “A Novel Soybean ERF Transcription Factor, GmERF113, Increases Resistance to Phytophthora sojae Infection in Soybean”.
Substitutions are numbered along the chain they refer to.

B1: GCC probe (GCC-box) (dsDNA)
DNA 1: ATCCATAAGAGCCGCCACTAAAATAAGACCGATCAA
DNA 2: TTGATCGGTCTTATTTTAGTGGCGGCTCTTATGGAT
B2: mGCC probe (mutated GCC-box) (dsDNA)
DNA 1: B1 DNA 1 with G11T, G14T
DNA 2: B1 DNA 2 with C23A, C26A

Biological target: GmERF113 (Glycine max (soybean) cv. Suinong 10, UniProt I1ML94 1-260)
Sequence (I1ML94 entry or part of it): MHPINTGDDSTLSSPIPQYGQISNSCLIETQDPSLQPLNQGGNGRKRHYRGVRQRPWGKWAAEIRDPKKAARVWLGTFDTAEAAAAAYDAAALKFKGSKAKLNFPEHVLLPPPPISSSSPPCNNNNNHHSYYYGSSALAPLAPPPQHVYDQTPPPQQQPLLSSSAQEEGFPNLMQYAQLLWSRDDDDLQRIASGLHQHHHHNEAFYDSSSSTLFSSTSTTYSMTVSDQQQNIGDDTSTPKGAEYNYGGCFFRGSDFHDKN
Assay: EMSA; EMSA as described by Liu et al. (2006); buffer, salt, pH and temperature not stated
Settings: protein: recombinant

Row | Binder | binding result
1 | B1 | binds
2 | B2 | no binding
